In the supplement of paper PMC9233669:
Variants at the floor of the assay were thinned out.

Key:
biotinyl-Leu-oxazolone = assay: self-aminoacylation, catalytic enhancement (BLO) (fold over background); higher = more active; k-Seq, kA / k0A0; sequences stand for … in GGGAAUGGAUCCACAUCUACGAAUUC…UUCACUGCAGACUUGACGAAGCUG
How it was run: (§1)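 Mutagenized RNA pools with a 21-nt variable region (0.43 μM) reacted with each biotinyl-aminoacyl-oxazolone at 2–1250 μM. Reactions ran in 50 μL HEPES/NaCl/KCl/MgCl2/CaCl2 buffer with 5% acetonitrile, pH 6.9–7.0, for 90 minutes at room temperature. Streptavidin-captured RNA was quantified by triplicate qPCR and Illumina sequencing, and per-sequence fraction reacted was fit to a pseudo-first-order model with 1000 bootstraps. Catalytic enhancement is median kA divided by the uncatalyzed rate, the low-activity peak of a bimodal Gaussian fit.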

biotinyl-Trp-oxazolone = assay: self-aminoacylation, catalytic enhancement (BWO) (fold over background); higher = more active; k-Seq, kA / k0A0; sequences stand for … in GGGAAUGGAUCCACAUCUACGAAUUC…UUCACUGCAGACUUGACGAAGCUG
How it was run: as §1

biotinyl-Phe-oxazolone = assay: self-aminoacylation, catalytic enhancement (BFO) (fold over background); higher = more active; k-Seq, kA / k0A0; sequences stand for … in GGGAAUGGAUCCACAUCUACGAAUUC…UUCACUGCAGACUUGACGAAGCUG
How it was run: as §1

biotinyl-Ile-oxazolone = assay: self-aminoacylation, catalytic enhancement (BIO) (fold over background); higher = more active; k-Seq, kA / k0A0; sequences stand for … in GGGAAUGGAUCCACAUCUACGAAUUC…UUCACUGCAGACUUGACGAAGCUG
How it was run: as §1

biotinyl-Met-oxazolone = assay: self-aminoacylation, catalytic enhancement (BMO) (fold over background); higher = more active; k-Seq, kA / k0A0; sequences stand for … in GGGAAUGGAUCCACAUCUACGAAUUC…UUCACUGCAGACUUGACGAAGCUG
How it was run: as §1

biotinyl-Val-oxazolone = assay: self-aminoacylation, catalytic enhancement (BVO) (fold over background); higher = more active; k-Seq, kA / k0A0; sequences stand for … in GGGAAUGGAUCCACAUCUACGAAUUC…UUCACUGCAGACUUGACGAAGCUG
How it was run: as §1

Row | Sequence | self-aminoacylation (biotinyl-Leu-oxazolone) | self-aminoacylation (biotinyl-Trp-oxazolone) | self-aminoacylation (biotinyl-Phe-oxazolone) | self-aminoacylation (biotinyl-Ile-oxazolone) | self-aminoacylation (biotinyl-Met-oxazolone) | self-aminoacylation (biotinyl-Val-oxazolone)
1 | CUUACCCUGGUCAUAGAGUGA [Fam2.1 aminoacylation ribozyme variant] | 5.85 | 7.46 | 24.2 | 2.86 | 6.37 | 2.83
2 | CUUACCCUGGUCAUCGAGUAA [Fam2.1 aminoacylation ribozyme variant] | 4.25 | 3.51 | 8.84 | 2.03 | 4.58 | 2.8
3 | CUUACCCUGGUCAUCGAGUCA [Fam2.1 aminoacylation ribozyme variant] | 0.705 | 0.547 | 0.627 | 0.742 | 0.897 | 1.07
4 | CUUACCCUGGUCAUCGAGUGA [Fam2.1 aminoacylation ribozyme variant] | 23.1 | 26.1 | 85.8 | 9.83 | 25.3 | 11
5 | CUUACCCUGGUCAUCGAGUUA [Fam2.1 aminoacylation ribozyme variant] | 2.36 | 2.08 | 4.79 | 1.53 | 2.5 | 1.73
6 | CUUACCCUGGUCUUCGAGUGA [Fam2.1 aminoacylation ribozyme variant] | 4.29 | 5 | 17.9 | 2.29 | 3.87 | 2.64
7 | CUUACCCUGGUGAUCGAGUGA [Fam2.1 aminoacylation ribozyme variant] | 4.36 | 5.52 | 14.5 | 2.65 | 4.51 | 2.81
8 | CUUACCCUGUUCAUCGAGUGA [Fam2.1 aminoacylation ribozyme variant] | 4.33 | 6.94 | 7.83 | 2.29 | 4.32 | 2.86
9 | CUUAUUCAAACAAUCGGUCUG [Fam1A.1 aminoacylation ribozyme variant] | 0.679 | 3.34 | 7.03 | 0.702 | 0.713 | 0.688
10 | CUUCACCAAGGUCAUCGGGUG [Fam2.2 aminoacylation ribozyme variant] | 9.25 | 7.64 | 59.9 | 4.21 | 8.17 | 5.4
11 | CUUCACCGAGGUCAUCGGGUG [Fam2.2 aminoacylation ribozyme variant] | 7.45 | 5.44 | 59.7 | 3.01 | 6.2 | 4.68
12 | CUUCACCUAGGUAAUCGGGUG [Fam2.2 aminoacylation ribozyme variant] | 2.68 | 2.7 | 1.56 | 1.59 | 2.65 | 1.65
13 | CUUCACCUAGGUCAUCGGAUG [Fam2.2 aminoacylation ribozyme variant] | 0.891 | 0.921 | 1 | 1.06 | 0.842 | 1.18
14 | CUUCACCUAGGUCAUCGUGUG [Fam2.2 aminoacylation ribozyme variant] | 1.39 | 1.12 | 3.33 | 1.21 | 1.6 | 1.26
15 | CUUCACCUAGGUCCUCGGGUG [Fam2.2 aminoacylation ribozyme variant] | 7.45 | 6.69 | 34.1 | 3.4 | 6.74 | 4.26
16 | CUUCACCUGGGUCAUCGGGUG [Fam2.2 aminoacylation ribozyme variant] | 4.82 | 4.89 | 25 | 2.43 | 4.02 | 5
17 | CUUCACUUAGGUCAUCGGGUG [Fam2.2 aminoacylation ribozyme variant] | 5.55 | 5.12 | 23.4 | 2.82 | 4.3 | 2.8
18 | CUUCUACAAACAAUCGGUCUG [Fam1A.1 aminoacylation ribozyme variant] | 0.623 | 0.564 | 0.956 | 0.694 | 0.763 | 0.831
19 | CUUCUGCAAACAAUCGGUCUG [Fam1A.1 aminoacylation ribozyme variant] | 0.795 | 0.919 | 1.52 | 0.957 | 0.85 | 0.889
20 | CUUCUUCAAACAAGCGGUCUG [Fam1A.1 aminoacylation ribozyme variant] | 1.04 | 0.713 | 0.813 | 1.09 | 0.925 | 0.958
21 | CUUCUUCAAACAAUCCGUCUG [Fam1A.1 aminoacylation ribozyme variant] | 0.923 | 0.964 | 1.17 | 0.85 | 0.623 | 0.901
22 | CUUCUUCAAACAAUCGGUAUG [Fam1A.1 aminoacylation ribozyme variant] | 0.779 | 4.71 | 9.62 | 0.784 | 0.647 | 0.66
23 | CUUCUUCAAACAAUCGGUCAG [Fam1A.1 aminoacylation ribozyme variant] | 0.623 | 2.59 | 5.5 | 0.818 | 0.655 | 0.734
24 | CUUCUUCAAACAAUCGGUCUG [Fam1A.1 aminoacylation ribozyme variant] | 1.41 | 17.6 | 35.5 | 0.898 | 0.996 | 0.902
25 | CUUCUUCAAACAGUCGGUCUG [Fam1A.1 aminoacylation ribozyme variant] | 0.803 | 0.848 | 0.711 | 0.697 | 0.821 | 0.771
26 | CUUCUUCAAGCAAUCGGUCUG [Fam1A.1 aminoacylation ribozyme variant] | 0.978 | 2.18 | 3.14 | 0.745 | 0.909 | 0.944

Row | Sequence | self-aminoacylation (biotinyl-Leu-oxazolone) | self-aminoacylation (biotinyl-Trp-oxazolone) | self-aminoacylation (biotinyl-Phe-oxazolone) | self-aminoacylation (biotinyl-Ile-oxazolone) | self-aminoacylation (biotinyl-Met-oxazolone) | self-aminoacylation (biotinyl-Val-oxazolone)
27 | CUUCUUCACACAAUCGGUCUG [Fam1A.1 aminoacylation ribozyme variant] | 0.775 | 0.81 | 0.889 | 0.714 | 0.749 | 0.782
28 | CUUCUUCAGACAAUCGGUCUG [Fam1A.1 aminoacylation ribozyme variant] | 0.606 | 0.559 | 0.958 | 0.76 | 0.651 | 0.751
29 | GAGAUUGCUAAUAGUCGCAAG [Fam3.1 aminoacylation ribozyme variant] | 1.52 | 2.94 | 1.8 | 1.88 | 1.67 | 1.98
30 | GAGUAUGCUAAUAGUCGCAAG [Fam3.1 aminoacylation ribozyme variant] | 1.45 | 4.13 | 6.5 | 1.91 | 1.49 | 1.61
31 | GAGUUUGCUAACAGUCGCAAG [Fam3.1 aminoacylation ribozyme variant] | 1.3 | 5.6 | 10.7 | 1.4 | 1.62 | 1.41
32 | GAGUUUGCUAAUAGGCGCAAG [Fam3.1 aminoacylation ribozyme variant] | 1.02 | 1.35 | 1.4 | 0.982 | 0.961 | 0.836
33 | GAGUUUGCUAAUAGUCACAAG [Fam3.1 aminoacylation ribozyme variant] | 1.36 | 4.25 | 11.7 | 1.84 | 1.62 | 1.48
34 | GAGUUUGCUAAUAGUCGGAAG [Fam3.1 aminoacylation ribozyme variant] | 1.16 | 4.68 | 11.6 | 1.38 | 1.6 | 1.38
35 | GCACACCUCAAGCAAUCGGUC [Fam1B.1 aminoacylation ribozyme variant] | 1.23 | 2.46 | 2.09 | 1.4 | 1.3 | 1.73
36 | GCACACUUCAAGCAAUCGGCC [Fam1B.1 aminoacylation ribozyme variant] | 3.49 | 6.96 | 4.88 | 3.36 | 2.99 | 3.45
37 | GCACACUUCAAGCACUCGGUC [Fam1B.1 aminoacylation ribozyme variant] | 1.94 | 3.42 | 4.05 | 2.02 | 2.44 | 2.25
38 | GCACACUUCAAUCAAUCGGUC [Fam1B.1 aminoacylation ribozyme variant] | 1.98 | 26.4 | 34.4 | 1.73 | 1.58 | 1.69
39 | GCACACUUCACGCAAUCGGUC [Fam1B.1 aminoacylation ribozyme variant] | 1.93 | 3.02 | 10.1 | 2.5 | 2 | 2.22
40 | GCACACUUCAGGCAAUCGGUC [Fam1B.1 aminoacylation ribozyme variant] | 1.67 | 2.39 | 3.06 | 2.21 | 2.04 | 2.42
41 | GCACCCUUCAAGCAAUCGGUC [Fam1B.1 aminoacylation ribozyme variant] | 1.45 | 4.63 | 4.04 | 1.32 | 1.22 | 1.47
42 | GCGCACUUCAAGCAAUCGGUC [Fam1B.1 aminoacylation ribozyme variant] | 2.65 | 29.6 | 41.1 | 2.12 | 2.04 | 2.2
43 | GCGUUUGCUAAUAGUCGCAAG [Fam3.1 aminoacylation ribozyme variant] | 2.65 | 4.24 | 4.9 | 2.09 | 2.34 | 2.05
44 | GGACACUUCAAGCAAUCGGUC [Fam1B.1 aminoacylation ribozyme variant] | 2.4 | 22.5 | 26.7 | 2.38 | 2.13 | 2.29
45 | GUACACCUAGGUCAUCGGGUG [Fam2.2 aminoacylation ribozyme variant] | 2.69 | 4.08 | 18.5 | 2.54 | 2.32 | 2.53
46 | GUACUUCAAACAAUCGGUGUG [Fam1A.1 aminoacylation ribozyme variant] | 3.35 | 10.2 | 10.4 | 2.12 | 2.77 | 1.97
47 | GUACUUCAAACACUCGGUCUG [Fam1A.1 aminoacylation ribozyme variant] | 1.64 | 1.91 | 5.9 | 1.5 | 1.31 | 1.3
48 | GUACUUCAAACCAUCGGUCUG [Fam1A.1 aminoacylation ribozyme variant] | 0.918 | 1.31 | 2.13 | 1.22 | 1.13 | 1.18
49 | GUAUUUCAAACAAUCGGUCUG [Fam1A.1 aminoacylation ribozyme variant] | 1.02 | 2.34 | 2.64 | 1.1 | 1.09 | 1.04
50 | GUCACCCUGGUCAUCGAGUGA [Fam2.1 aminoacylation ribozyme variant] | 7.9 | 10.6 | 45.7 | 5.2 | 7.39 | 5.25
51 | GUCCUUCAAACAAUCGGUCUG [Fam1A.1 aminoacylation ribozyme variant] | 1.49 | 11 | 11.9 | 1.31 | 1.35 | 1.52
